Earlier results on two substances are cited in PMC4041007.

One data set has as its target LLT1 (Homo sapiens) (UniProt Q9UHP7).
The target of a further data set is KACL (Homo sapiens) (UniProt Q6UVW9).
Sequence of UniProt Q6UVW9 (Q6UVW9 whole entry): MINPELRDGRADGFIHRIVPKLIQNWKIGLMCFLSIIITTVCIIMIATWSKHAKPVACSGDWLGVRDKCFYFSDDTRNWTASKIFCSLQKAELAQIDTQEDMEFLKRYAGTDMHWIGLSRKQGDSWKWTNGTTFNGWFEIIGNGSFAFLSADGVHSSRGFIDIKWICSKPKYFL

Sequence of UniProt Q9UHP7 (Q9UHP7 whole entry): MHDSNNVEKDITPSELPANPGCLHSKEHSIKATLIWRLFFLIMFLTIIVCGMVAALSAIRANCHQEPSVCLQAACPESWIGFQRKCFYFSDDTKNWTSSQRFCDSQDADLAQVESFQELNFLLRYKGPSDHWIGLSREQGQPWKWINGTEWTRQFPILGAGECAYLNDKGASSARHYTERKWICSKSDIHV

Turning to NKR-P1A (from UniProt Q12918), the Kd with LLT1 (Homo sapiens) is 50 µM.

Regarding NKp65 (from UniProt D3W0D1), the Kd with KACL (Homo sapiens) is 0.002 µM.
